Assay results as given in PMC11079029, “Intramolecular autoinhibition regulates the selectivity of PRPF40A tandem WW domains for proline-rich motifs” (Nature Communications, 2024).
Positions count from the first letter of the chain named. Several values for one entry are separate records, joined by “and”; a condition that tells them apart may be missing. Equal values may be shown once.

Tests used:
Conditions in all cases: both partners purified
[1] = target: T1, PRPF40A WW12 (tandem WW domains, residues 141-236) (human, UniProt O75400 141-236); assay: ITC; GB1-tagged SF1/SF3A1 constructs in the syringe and the WW tandem in the cell; 25 °C, 20 mM sodium phosphate pH 6.5, 100 mM NaCl; one-site model; apparent affinities
T1 construct: pETM11 vector, NcoI/KpnI; 15N or 13C,15N labelled for NMR; also called PRPF40A WW tandem; PRPF40A tandem WW domains; source: E. coli BL21(DE3), purified (Ni-NTA, TEV, reverse Ni-NTA, SEC); not shown: His6, N-terminal, cleaved

[2] = target: T2, PRPF40A WW12 (tandem WW domains, residues 141-236) (human, UniProt O75400 141-236); assay: ITC; MicroCal PEAQ-ITC, 25 °C, 20 mM sodium phosphate pH 6.5, 100 mM NaCl; PRPF40A constructs and GB1-tagged SF1 16-mer peptides; who was in the syringe is not stated for these panels (Fig. 2B, Fig. 5C); one-site model
T2 construct: pETM11 vector (NcoI/KpnI); also called PRPF40A WW tandem; isolated WW domains; source: E. coli BL21(DE3), purified (Ni-NTA, TEV cleavage, reverse Ni-NTA, SEC); not shown: His6, N-terminal, cleaved

[3] = target: T1, PRPF40A WW12 (tandem WW domains, …); assay: ITC; 16-mer SF1 and polyproline peptides (N-terminal GB1 tagged) in the cell and PRPF40A construct in the syringe (said for Fig. 2; not told for Fig. 5C); 25 °C, 20 mM sodium phosphate pH 6.5, 100 mM NaCl; one-site model; apparent affinities
[4] = target: T3, PRPF40A N-ext-WW12 mutant (PPVP/PALPP motifs changed to alanine residues) (human, UniProt O75400 56-236, PPVP, residues 78-81, to alanine residues | PALPP, residues 123-127, to alanine …); assay: as above
T3 construct: PRPF40A isoform 1, residues 56-236, with the motifs PPVP (78-81) and PALPP (123-127) changed to alanine residues; Made by site-directed mutagenesis; also called mutant version of the N-ext-WW12 construct; mutated version of the N-extWW12; source: E. coli BL21(DE3), purified (Ni-NTA, TEV, reverse Ni-NTA, SEC); not shown: His6, N-terminal, cleaved
T3 sequence (looked up): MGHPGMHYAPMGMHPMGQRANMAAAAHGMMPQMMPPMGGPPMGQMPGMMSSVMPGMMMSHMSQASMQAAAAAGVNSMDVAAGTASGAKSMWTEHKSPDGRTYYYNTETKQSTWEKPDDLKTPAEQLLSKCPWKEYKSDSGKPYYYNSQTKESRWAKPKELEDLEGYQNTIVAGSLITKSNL

[5] = target: T4, PRPF40A N-ext-WW12 (residues 56-236) (human, UniProt O75400 56-236); assay: as above
T4 construct: PRPF40A isoform 1, residues 56-236: N-terminal proline-rich region and the WW tandem; also called N-terminal extended WW12 construct; source: E. coli BL21(DE3), purified (Ni-NTA, TEV, reverse Ni-NTA, SEC); not shown: His6, N-terminal, cleaved
T4 sequence (looked up): T3 sequence (looked up) with A23P, A24P, A25V, A26P, A68P, A70L, A71P, A72P

[6] = target: T5, PRPF40A N-ext-WW12 (residues 56-236) (human, UniProt O75400 56-236); assay: ITC; MicroCal PEAQ-ITC, 25 °C, 20 mM sodium phosphate pH 6.5, 100 mM NaCl; PRPF40A constructs and GB1-tagged SF1 16-mer peptides; who was in the syringe is not stated for these panels (Fig. 2B, Fig. 5C); one-site model
T5 construct: PRPF40A isoform 1, residues 56-236: N-terminal proline-rich region and both WW domains; pETM11 vector; also called Nter Ext WW12; N-terminal extended WW12 construct; source: E. coli BL21(DE3), purified (Ni-NTA, TEV cleavage, reverse Ni-NTA, SEC); not shown: His6, N-terminal, cleaved
T5 sequence (looked up): T3 sequence (looked up) with A23P, A24P, A25V, A26P, A68P, A70L, A71P, A72P

B1: GB1-tagged SF1 Pro ABCD (410-639) (domain or fragment, UniProt Q15637 410-639, looked up)
chain: GHPMQHNPNGPPPPWMQPPPPPMNQGPHPPGHHGPPPMDQYLGSTPVGSGVYRLHQGKGMMPPPPMGMMPPPPPPPSGQPPPPPSGPLPPWQQQQQQPPPPPPPSSSMASSTPLPWQQNTTTTTTSAGTGSIPPWQQQQAAAAASPGAPQMQGNPTMVPLPPGVQPPLPPGAPPPPPPPPPGSAGMMYAPPPPPPPPMDPSNFVTMMGMGVAGMPPFGMPPAPPPPPPQN
notes: SF1 residues 410-639, the whole proline-rich C-terminal region; also called complete C-terminal region of SF1; source: E. coli BL21(DE3), purified (Ni-NTA, SEC), GB1 tag kept; not shown: GB1, N-terminal, kept
[1]
  stoichiometry N: 3 PRPF40A tandems per SF1 construct

B2: GB1-SF1(425-440) 16-mer peptide (peptide)
chain: GAMSGSMQPPPPPMNQGPHPPGSGSN
notes: common N-terminal residues after the TEV site (TEVsite-GAMSGS-peptide-SGSN); SF1 (splicing factor 1) residues 425-440; common C-terminal residues; pET24 vector with 6xHis, GB1 and TEV site as N-terminal cassette, not cleaved; source: E. coli BL21(DE3), purified (Ni-NTA, SEC); not shown: GB1, N-terminal, kept
[2]
  Kd: 15.9 µM and 21.8 µM and 22.9 µM and 20.2 µM

B3: GB1-tagged SF1 470-485 peptide (peptide)
chain: GAMSGSMPPPPMGMMPPPPPPPSGSN
notes: common N-terminal residues after the TEV site; SF1 residues 470-485; common C-terminal residues; source: E. coli BL21(DE3), purified (Ni-NTA, SEC), GB1 tag kept; not shown: GB1, N-terminal, kept
[3]
  Kd: ~10 µM

B4: GB1-SF1(478-493) 16-mer peptide (peptide)
chain: GAMSGSMPPPPPPPSGQPPPPPSGSN
notes: common N-terminal residues after the TEV site (TEVsite-GAMSGS-peptide-SGSN); SF1 (splicing factor 1) residues 478-493; common C-terminal residues; pET24 vector with 6xHis, GB1 and TEV site as N-terminal cassette, not cleaved; source: E. coli BL21(DE3), purified (Ni-NTA, SEC); not shown: GB1, N-terminal, kept
[2]
  Kd: 8.26 µM and 10.3 µM and 10.2 µM and 9.59 µM

B5: GB1-tagged SF1 575-590 peptide (SF1 PRPF40A WW binding site) (peptide)
chain: GAMSGSPPLPPGAPPPPPPPPPSGSN
notes: common N-terminal residues after the TEV site (TEVsite-GAMSGS-peptide-SGSN); SF1 residues 575-590; common C-terminal residues; pET24 vector with 6xHis, GB1 and TEV site as N-terminal cassette; not cut with TEV for ITC and NMR titrations; also called SF1_(WWbs); source: E. coli BL21(DE3), purified (Ni-NTA, SEC), GB1 tag kept; not shown: GB1, N-terminal, kept
[4]
  binding result: binds
[5]
  Kd: 8.8 µM
[3]
  Kd: 1.4 µM

B6: GB1-SF1(470-485) 16-mer peptide (peptide)
chain: GAMSGSMPPPPMGMMPPPPPPPSGSN
notes: common N-terminal residues after the TEV site (TEVsite-GAMSGS-peptide-SGSN); SF1 (splicing factor 1) residues 470-485; common C-terminal residues; pET24 vector with 6xHis, GB1 and TEV site as N-terminal cassette, not cleaved; source: E. coli BL21(DE3), purified (Ni-NTA, SEC); not shown: GB1, N-terminal, kept
[6]
  Kd: > 250 µM

B7: GB1-SF1(623-638) 16-mer peptide (peptide)
chain: GAMSGSMPPFGMPPAPPPPPPQSGSN
notes: common N-terminal residues after the TEV site (TEVsite-GAMSGS-peptide-SGSN); SF1 (splicing factor 1) residues 623-638; common C-terminal residues; pET24 vector with 6xHis, GB1 and TEV site as N-terminal cassette, not cleaved; source: E. coli BL21(DE3), purified (Ni-NTA, SEC); not shown: GB1, N-terminal, kept
[2]
  Kd: 21.8 µM and 24.8 µM and 23.3 µM

B8: GB1-tagged SF3A1 Middle Pro (364-413) (domain or fragment, UniProt Q15459 364-413, looked up)
chain: EGQKVPPPPETPMPPPLPPTPDQVIVRKDYDPKASKPLPPAPAPDEYLVS
notes: SF3A1 residues 364-413, proline-rich region with a PPLP motif; also called SF3A1 region (364-413); source: E. coli BL21(DE3), purified (Ni-NTA, SEC), GB1 tag kept; not shown: GB1, N-terminal, kept
[1]
  Kd: ~10 µM
